The target in test [1] is T1, soluble KDR extracellular domain (ECD) (Calbiochem) (human, UniProt P35968 20-764).
T1 construct: extracellular domain; Bought protein; also called KDR-ECD; VEGF Receptor 2 D1-7, Cat. #676490
Description: Limited Antigen ELISA, KDR coat 6.25 ng/mL, supernatant 1:25. The procedure: (§1) Samples containing one concentration of antibody (Ab) (1:25 dilution) were incubated overnight to allow Ab binding to approach equilibrium. The low antigen concentration limited the effect of antibody concentration, allowing ranking of the antibodies based on their relative affinity.

Test [2] addresses T1, soluble KDR extracellular domain (ECD) …. Description: High Antigen ELISA, KDR coat 500 ng/mL, supernatant 1:18,225. As for the experimental part:
(§2) ELISA plates were coated with a greater amount of KDR (at 500 ng/mL) in comparison with the Limited Antigen Quantitation assay described below. Sample containing antibody (Ab) was titrated on the KDR-coated ELISA plates and was incubated overnight at 4° C. to allow Ab binding to approach equilibrium. Titration of Ab in sample covered a dilution range of 1:25 to 1:18,225. A standard curve of KDR-specific antibody of known concentration was used to define the linear range of the assay. Data within the linear range were used to derive the relative concentration of KDR-specific Ab in each titrated sample. The high KDR concentration and the overnight incubation limited the effect of Ab affinity, allowing quantitation of the relative amount of KDR-specific Ab present in each sample.

Test [3] has the same target. Put plainly: Limited Antigen ELISA, KDR coat 25 ng/mL, supernatant 1:25. The procedure:
as §1
For orientation: An ELISA detects its analyte on a solid surface through an enzyme-linked reagent.

Test [4] has the same target. Put plainly: High Antigen ELISA, KDR coat 500 ng/mL, supernatant 1:675. The procedure: as §2
For test [5] the target is unchanged. Put plainly: High Antigen ELISA, KDR coat 500 ng/mL, supernatant 1:25. The procedure:
as §2

Test [6] shares this target. Put plainly: High Antigen ELISA, KDR coat 500 ng/mL, supernatant 1:75. As for the experimental part: as §2
Test [7] has the same target. Put plainly: Limited Antigen ELISA, KDR coat 12.5 ng/mL, supernatant 1:25. As for the experimental part: as §1
For test [8] the target is unchanged. Description: Limited Antigen ELISA, KDR coat 3.125 ng/mL, supernatant 1:25. The procedure: as §1
For test [9] the target is unchanged. Put plainly: High Antigen ELISA, KDR coat 500 ng/mL, supernatant 1:6075. As for the experimental part: as §2
For test [10] the target is unchanged. Description: High Antigen ELISA, KDR coat 500 ng/mL, supernatant 1:225. The procedure: as §2
For test [11] the target is unchanged. Description: Limited Antigen ELISA, KDR coat 50 ng/mL, supernatant 1:25. As for the experimental part: as §1
Test [12] addresses KDR endogenously expressed on human umbilical vein endothelial cells (HUVEC) (human, UniProt P35968 20-1356). Put plainly: cell-based or functional assay.
In test [13] the target is T1, soluble KDR extracellular domain (ECD) …. Put plainly: High Antigen ELISA, KDR coat 500 ng/mL, supernatant 1:2025. As for the experimental part:
as §2

Substitutions are numbered along the chain they refer to.

T1 sequence (P35968 20-764): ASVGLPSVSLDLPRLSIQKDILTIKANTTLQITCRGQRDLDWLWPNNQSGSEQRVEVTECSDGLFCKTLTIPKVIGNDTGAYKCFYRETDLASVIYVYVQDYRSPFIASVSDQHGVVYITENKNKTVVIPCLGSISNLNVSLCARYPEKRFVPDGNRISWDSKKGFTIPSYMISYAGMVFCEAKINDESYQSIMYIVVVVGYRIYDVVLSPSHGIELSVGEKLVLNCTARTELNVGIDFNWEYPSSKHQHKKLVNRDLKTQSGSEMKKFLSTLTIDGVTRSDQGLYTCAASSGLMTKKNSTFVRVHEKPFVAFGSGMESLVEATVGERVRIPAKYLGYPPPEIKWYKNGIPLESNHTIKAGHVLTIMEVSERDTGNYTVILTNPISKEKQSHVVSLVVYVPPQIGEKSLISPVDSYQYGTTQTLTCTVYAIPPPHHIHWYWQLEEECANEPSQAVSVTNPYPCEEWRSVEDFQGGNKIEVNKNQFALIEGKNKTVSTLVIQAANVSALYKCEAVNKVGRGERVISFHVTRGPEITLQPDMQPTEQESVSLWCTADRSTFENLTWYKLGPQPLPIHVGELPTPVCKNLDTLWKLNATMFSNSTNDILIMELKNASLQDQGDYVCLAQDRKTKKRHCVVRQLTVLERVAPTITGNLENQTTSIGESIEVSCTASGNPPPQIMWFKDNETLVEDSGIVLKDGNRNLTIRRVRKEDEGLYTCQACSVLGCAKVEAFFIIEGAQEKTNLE
KDR endogenously expressed on human umbilical vein endothelial cells (HUVEC), sequence (P35968 20-1356): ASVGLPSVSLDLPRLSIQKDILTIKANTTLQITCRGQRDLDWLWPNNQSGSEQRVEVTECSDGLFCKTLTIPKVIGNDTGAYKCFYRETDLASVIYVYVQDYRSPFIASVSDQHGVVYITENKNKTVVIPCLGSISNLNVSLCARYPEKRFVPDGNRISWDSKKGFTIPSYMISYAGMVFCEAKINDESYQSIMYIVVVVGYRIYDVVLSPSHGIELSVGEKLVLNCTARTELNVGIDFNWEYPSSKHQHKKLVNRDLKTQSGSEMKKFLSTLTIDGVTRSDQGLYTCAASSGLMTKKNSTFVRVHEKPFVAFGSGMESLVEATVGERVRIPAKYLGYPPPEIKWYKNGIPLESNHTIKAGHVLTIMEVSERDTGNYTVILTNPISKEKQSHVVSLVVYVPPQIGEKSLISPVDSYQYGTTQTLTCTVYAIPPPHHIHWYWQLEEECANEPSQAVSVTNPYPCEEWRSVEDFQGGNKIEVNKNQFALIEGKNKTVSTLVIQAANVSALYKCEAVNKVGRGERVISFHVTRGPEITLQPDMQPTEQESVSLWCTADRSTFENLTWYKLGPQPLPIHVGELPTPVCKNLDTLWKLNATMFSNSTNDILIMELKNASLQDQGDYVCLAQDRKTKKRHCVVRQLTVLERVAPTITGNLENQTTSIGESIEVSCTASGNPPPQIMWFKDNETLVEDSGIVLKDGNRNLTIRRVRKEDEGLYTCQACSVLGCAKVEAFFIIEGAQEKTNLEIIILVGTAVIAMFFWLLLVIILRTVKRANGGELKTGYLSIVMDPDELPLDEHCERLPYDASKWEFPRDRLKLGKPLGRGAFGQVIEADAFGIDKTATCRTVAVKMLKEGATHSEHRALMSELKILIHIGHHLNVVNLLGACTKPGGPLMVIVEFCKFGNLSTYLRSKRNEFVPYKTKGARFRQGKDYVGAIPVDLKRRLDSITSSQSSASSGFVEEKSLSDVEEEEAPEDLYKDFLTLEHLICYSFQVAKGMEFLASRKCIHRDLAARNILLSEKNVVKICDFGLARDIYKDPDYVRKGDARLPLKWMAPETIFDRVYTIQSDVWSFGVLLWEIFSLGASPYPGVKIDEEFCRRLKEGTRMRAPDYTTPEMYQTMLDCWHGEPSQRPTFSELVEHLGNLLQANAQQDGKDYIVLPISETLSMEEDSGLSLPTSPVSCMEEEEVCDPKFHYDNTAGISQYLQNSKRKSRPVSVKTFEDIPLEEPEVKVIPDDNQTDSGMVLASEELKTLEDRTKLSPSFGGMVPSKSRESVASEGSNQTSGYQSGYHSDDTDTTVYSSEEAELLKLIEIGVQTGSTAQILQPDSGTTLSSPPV

B1: 29A3 (antibody, V domains shown)
VH: QVQLQESGPGLVKPSETLSLTCTVSGGSISSYFWSWIRQPAGKGLEWIGRIYFSGRTNYNPSLKSRVTMSVETSKNQFSLKLNSVTAADTAVYYCARDGGWNYDVAFDYWGQGTLVTVSS
VL: QAVLTQPSSLSASPGASASLTCTLRSGINVGTYRIYWYQQKPGSPPQYLLRYKSDSDQLQGSGVPSRFSGSKDASANAGILLISGLQSEDEADYYCMVWHSNTWVFGGGTKLTVL
notes: Fully human mAb from XenoMouse hybridoma, tested as hybridoma supernatant
On to B1, for which the ELISA reading in test [1] is 0.27; in test [2], 0.24; in test [3] it was 1.13; in test [4] it was 3.32; in [5], 3.89; in test [6], 4.06. In addition, the ELISA reading is 0.49 in [7]; 0.16 in test [8]; 0.57 in [9]; 3.85 in test [10]; 2.27 in test [11]; 1.91 in test [13]. Besides, in test [12], the “VEGF-E-mediated Survival % Inhibition (Average)” value was -10%. Also, the “VEGF-E-mediated Survival % Inhibition (n = 1)” value in test [12] was -1%. The “VEGF-E-mediated Survival % Inhibition (n = 2)” value in test [12] was -20%.

B2: 29H3 (antibody, V domains shown)
VH: QVQLVQSGAEVKKPGASVKVSCKASGYTFTSYDINWVRQATGQGLEWMGWMNPNSGKTGYAQKFQGRVTMTRNTSINTAYMELSSLRSEDTAVYYCARGGYSNLGWFDPWGQGTLVTVSS
VL: DIQMTQSPSSVSASVGDRVTITCRASQGISSWLVWYHQKPGKAPKLLIYGASSLQSGVPSRFSGSGSGTDFTLTISSLQPEDFATYYCQQANNFPFTFGPGTKVDIK
notes: as for B1
Consider B2, for which the ELISA reading in [1] is 0.24; in test [2], 0.21; in test [3], 1.03; in [4], 2.83; in test [5], 4.52; in test [6], 4.96. Moreover, the ELISA reading in test [7] was 0.4; in test [8] it was 0.16; in test [9], 0.47; in test [10] it was 4.29; in test [11], 2.13; in test [13], 1.42. Also, the “VEGF-E-mediated Survival % Inhibition (Average)” value in [12] is -15%. In addition, the “VEGF-E-mediated Survival % Inhibition (n = 1)” value in [12] is -19%. In addition, in [12], the “VEGF-E-mediated Survival % Inhibition (n = 2)” value is -11%.

B3: 33D5 (antibody, V domains shown)
VH: B2 VH with T30G, K57N, M70L, N77R, A79V, T114S
VL: B2 VL with A13V, V34A, H37Q, G50A, N93S
notes: as for B1
Turning to B3, the ELISA reading in [1] was determined as 0.61; in [2] it was 0.87; in test [3], 2.2; in test [4] it was 6; in test [5] it was 4.61; in test [6], 4.56. In addition, the ELISA reading in [7] turned out to be 1.32; in [8] it was 0.33; in [9] it was 1.7; in test [10], 4.78; in [11], 3.81; in test [13], 3.65. For the same molecule, the “VEGF-E-mediated Survival % Inhibition (Average)” value in test [12] worked out at 0%. For the same molecule, the “VEGF-E-mediated Survival % Inhibition (n = 1)” value in test [12] was -2%. Moreover, the “VEGF-E-mediated Survival % Inhibition (n = 2)” value in test [12] came out at 2%.

B4: 29F7 (antibody, V domains shown)
VH: B2 VH with N73S, N77S
VL: B2 VL with S12F, S31T, V34A, H37Q, L46F, G50A, E81D
notes: as for B1
B4: the ELISA reading turned out to be 0.51 in test [1]; 0.22 in test [2]; 2.19 in test [3]; 3.76 in [4]; 4.42 in test [5]; 4.49 in [6]. For the same molecule, the ELISA reading was 1 in test [7]; 0.25 in test [8]; 0.57 in test [9]; 4.26 in [10]; 3.54 in test [11]; 1.68 in [13]. In addition, in test [12], the “VEGF-E-mediated Survival % Inhibition (Average)” value came to 11%. Moreover, in [12], the “VEGF-E-mediated Survival % Inhibition (n = 1)” value came to 15%. In addition, the “VEGF-E-mediated Survival % Inhibition (n = 2)” value in test [12] amounted to 6%.

B5: 32F4 (antibody, V domains shown)
VH: QLQLQESGPGLVKPSGTLSLSCTVSGGSISSRSDYWGWIRQPPGKGLEWIGTIYYSGNTFYNPSLKSRVTISVDTSKKQFSLKLSSVTAADTAVYYCARQQLVLYYFDYWGQGTLVTVSS
VL: EIVLTQSPGTLSLSPGERATLSCRTSQSVSSSYLAWYQQKPGQAPRLLIYGASSRATGVPDRFSGSGSGTDFSLTISRLEPEDFAVYYCQQYGSSPPLTFGGGTKVEIK
notes: as for B1
As to B5, the ELISA reading was determined as 0.36 in [1]; 0.5 in [2]; 1.09 in [3]; 4.61 in [4]; 4.79 in test [5]; 5.56 in test [6]. Moreover, the ELISA reading came to 0.74 in [7]; 0.23 in [8]; 0.97 in [9]; 6 in test [10]; 2.22 in test [11]; 2.71 in [13]. The “VEGF-E-mediated Survival % Inhibition (Average)” value in test [12] was 64%. Moreover, in test [12], the “VEGF-E-mediated Survival % Inhibition (n = 1)” value worked out at 64%. In [12], the “VEGF-E-mediated Survival % Inhibition (n = 2)” value was 64%.

B6: 32B2 (antibody, V domains shown)
VH: EVQLLESGGGLVQPGGSLRLSCAASGFTFSNYAMSWVRQAPGKGLDWVSAISGRGGSTYYADSVKGRFTISRDNSKNTLFLLMNSLRAEDTAVYYCAKASGDDWGQGTLVTVSS
VL: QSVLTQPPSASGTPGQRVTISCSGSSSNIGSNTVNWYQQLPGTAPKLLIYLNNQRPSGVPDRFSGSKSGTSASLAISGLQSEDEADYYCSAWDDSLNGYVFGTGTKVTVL
notes: as for B1
With B6, the ELISA reading in test [1] worked out at 0.42; in [2], 0.8; in test [3], 1.69; in test [4], 6; in [5], 6; in test [6], 6. Moreover, the ELISA reading in test [7] was found to be 0.86; in test [8], 0.25; in test [9], 1.54; in test [10], 6; in [11] it was 2.9; in [13] it was 3.33. In test [12], the “VEGF-E-mediated Survival % Inhibition (Average)” value was -6%. Moreover, the “VEGF-E-mediated Survival % Inhibition (n = 1)” value in test [12] was -2%. In addition, the “VEGF-E-mediated Survival % Inhibition (n = 2)” value in test [12] is -9%.

B7: 30E3 (antibody, V domains shown)
VH: B6 VH with M34L, D46E, R54S, G56R, S57N, I70L, L82Q, D103N
VL: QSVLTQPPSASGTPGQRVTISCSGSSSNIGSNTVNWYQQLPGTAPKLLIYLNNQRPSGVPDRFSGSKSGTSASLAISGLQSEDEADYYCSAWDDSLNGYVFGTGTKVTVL
notes: as for B1
As to B7, the ELISA reading in test [1] came to 0.43; in test [2], 0.18; in test [3], 1.37; in test [4], 2.12; in test [5], 6; in [6] it was 4.78. The ELISA reading in [7] turned out to be 0.73; in test [8], 0.24; in test [9], 0.32; in test [10], 4.45; in test [11] it was 2.71; in [13], 0.86. In addition, the “VEGF-E-mediated Survival % Inhibition (Average)” value in test [12] was -14%. In test [12], the “VEGF-E-mediated Survival % Inhibition (n = 1)” value is -21%. In addition, the “VEGF-E-mediated Survival % Inhibition (n = 2)” value in test [12] was -7%.

B8: 29A11 (antibody, V domains shown)
VH: B6 VH with S35N, D46E, R54G, S57N, F80Y, L82Q, S85R
VL: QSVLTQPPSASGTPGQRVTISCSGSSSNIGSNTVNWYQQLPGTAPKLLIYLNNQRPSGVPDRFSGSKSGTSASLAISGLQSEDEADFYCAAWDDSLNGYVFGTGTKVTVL
notes: as for B1
Regarding B8, the ELISA reading in test [1] was 0.59; in test [2] it was 0.99; in test [3], 1.9; in [4], 5.09; in [5], 4.66; in [6], 6. Besides, the ELISA reading in test [7] turned out to be 1.05; in test [8], 0.3; in [9], 2.16; in test [10], 6; in test [11] it was 3.43; in test [13], 4.33. Also, the “VEGF-E-mediated Survival % Inhibition (Average)” value in test [12] was found to be 5%. In test [12], the “VEGF-E-mediated Survival % Inhibition (n = 1)” value is 8%. Besides, the “VEGF-E-mediated Survival % Inhibition (n = 2)” value in [12] was determined as 1%.

The record behind these values is patent US20100260765A1 (AstraZeneca / MedImmune, published 2010).
